Test [1] has as its target ^HAβ3/θIC chimera (EC and TM domains from β3, intracellular domain from θ) (rat).
For test [2] the target is unchanged. The source holds these as a separate data set.
The target in test [3] is ^HAβ3 (rat GABAA receptor β3 subunit with a triple HA tag) (rat) (UniProt P63079).
Test [4] deals with ^HAβ3/θIC chimera (EC and TM domains from β3, intracellular domain from θ) (rat). This is another data set of the same source.
Test [5] deals with ^HAβ3 (rat GABAA receptor β3 subunit with a triple HA tag) (rat) (UniProt P63079). This is another data set of the same source.
The target is the same in test [6]. This is another data set of the same source.

“rat GABAA receptor β3 subunit (untagged) (from UniProt P63079 26-473)” returned an anti-HA surface immunofluorescence intensity of non-permeabilized HEK293 cells co-transfected with untagged β3 and ^HAβ3/θIC (the chimera alone is rarely on the surface) in test [1] of 9.9 AU.

As to “rat GABAA receptor α3 subunit (untagged) (from UniProt P20236 29-493)”, the anti-HA surface immunofluorescence intensity of non-permeabilized HEK293 cells co-transfected with α3 and ^HAβ3/θIC (the chimera alone is rarely on the surface) in test [2] is 14 AU. Moreover, in test [3], the histamine (3 mM) potentiation of the response to 1 mM GABA, whole-cell patch clamp, HEK293 cells co-transfected with α3 and ^HAβ3 was determined as 2.93 fold. Also, in test [4], the peak whole-cell current evoked by 1 mM GABA, HEK293 cells co-transfected with α3 and ^HAβ3/θIC (patch clamp) stood at 803 pA.

Consider “^zβ3Q64E (mutant β3 subunit with higher affinity for histamine) (from UniProt P63079 26-473) (receptor)”, for which the share of the low-affinity component in the bimodal histamine concentration-response curve (10 μM to 10 mM), whole-cell patch clamp, HEK293 cells co-transfected with ^zβ3Q64E and ^HAβ3 (% of the total curve fit) in test [5] was 85.

For “^HAβ3 (rat GABAA receptor β3 subunit with a triple HA tag) (from UniProt P63079 26-473)”, the peak whole-cell current evoked by 3 mM histamine, HEK293 cells transfected with ^HAβ3 alone (patch clamp, -80 mV) in test [6] was 404 pA.

Source of the values: paper PMC6802930.
